Experimental findings from paper PMC7614720 are described below.

By Km is commonly meant the concentration of substrate that gives half-maximal velocity. One may read the kcat as the maximal rate divided by the concentration of active sites. Usually kcat/Km stands for the turnover number divided by the Michaelis constant.

In the data set the test system is C[C@@H](O)[C@H]1C(=O)N2C(C(=O)O)=C([C@H]3CCCO3)S[C@H]12. The experiment in a line: purified protein. As to conditions: two Zn2+ ions active site.

On to VIM-2 (Pseudomonas aeruginosa), for which the Km came out at 5.11 µM, the kcat was found to be 36.7 s⁻¹ and the kcat/Km worked out at 7.17e+06 M⁻¹ s⁻¹.
